According to PMC5031558:

Target: HOIP PUB domain (aa 1–184) (UniProt Q96EP0)
Experiment: fluorescence polarisation; FITC-Ahx-labeled PIM peptides with purified PUB domains; triplicate

Sequence of HOIP PUB domain (aa 1–184) (Q96EP0 1-184): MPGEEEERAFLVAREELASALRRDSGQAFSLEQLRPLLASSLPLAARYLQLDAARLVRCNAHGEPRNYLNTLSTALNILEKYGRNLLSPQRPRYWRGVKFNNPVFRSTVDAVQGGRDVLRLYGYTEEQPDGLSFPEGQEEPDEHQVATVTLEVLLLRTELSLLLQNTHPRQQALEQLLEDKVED

Kd [nM]	Substance
300	FITC-Ahx-labeled SPATA2 PIM peptide
300	FITC-Ahx-labeled OTULIN PIM peptide
